# Values quoted from earlier work, collected in PMC9784434.
# Biological target: NKG2D (Homo sapiens) (UniProt P26718)
# UniProt P26718, sequence (P26718 whole entry): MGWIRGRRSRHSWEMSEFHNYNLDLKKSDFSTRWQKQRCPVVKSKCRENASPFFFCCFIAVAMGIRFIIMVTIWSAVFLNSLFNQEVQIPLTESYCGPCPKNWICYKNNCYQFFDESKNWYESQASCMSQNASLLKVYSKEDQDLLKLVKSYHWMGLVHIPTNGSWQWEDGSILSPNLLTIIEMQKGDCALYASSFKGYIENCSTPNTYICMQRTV
substance,measurement,value
MICB (from UniProt Q29980),Kd,800 nM
